According to patent publication US20180155451A1 (published 2018):

B1: GpH7-A5/GpH7-B3 variant S267_02A/GpL16-k0 (antibody, human IgG1, kappa)
heavy 1: not shown
heavy 2: not shown
light: DIVMTQSPLSLPVTPGEPASISCQASESLVHSNRNTYLHWYLQKPGQSPQLLIYKVSNRFSGVPDRFSGSGSGTDFTLKISRVEAEDVGVYYCSQNTHVPPTFGQGTKVEIERTVAAPSVFIFPPSDEQLKSGTASVVCLLNNFYPREAKVQWKVDNALQSGNSQESVTEQDSKDSTYSLSSTLTLSKADYEKHKVYACEVTHQGLSSPVTKSFNRGEC
notes: also called He Ab S267_02A
B2: GpH7-A5/GpH7-B3 variant S267_09D/GpL16-k0 (antibody, human IgG1, kappa)
heavy 1: not shown
heavy 2: not shown
light: DIVMTQSPLSLPVTPGEPASISCQASESLVHSNRNTYLHWYLQKPGQSPQLLIYKVSNRFSGVPDRFSGSGSGTDFTLKISRVEAEDVGVYYCSQNTHVPPTFGQGTKVEIERTVAAPSVFIFPPSDEQLKSGTASVVCLLNNFYPREAKVQWKVDNALQSGNSQESVTEQDSKDSTYSLSSTLTLSKADYEKHKVYACEVTHQGLSSPVTKSFNRGEC
notes: also called He Ab S267_09D
B3: GpH7-A5/GpH7-B3 variant S298_14T/GpL16-k0 (antibody, human IgG1, kappa)
heavy 1: not shown
heavy 2: not shown
light: DIVMTQSPLSLPVTPGEPASISCQASESLVHSNRNTYLHWYLQKPGQSPQLLIYKVSNRFSGVPDRFSGSGSGTDFTLKISRVEAEDVGVYYCSQNTHVPPTFGQGTKVEIERTVAAPSVFIFPPSDEQLKSGTASVVCLLNNFYPREAKVQWKVDNALQSGNSQESVTEQDSKDSTYSLSSTLTLSKADYEKHKVYACEVTHQGLSSPVTKSFNRGEC
notes: also called He Ab S298_14T
B4: GpH7-A5/GpH7-B3 variant S324_02A/GpL16-k0 (antibody, human IgG1, kappa)
heavy 1: not shown
heavy 2: not shown
light: DIVMTQSPLSLPVTPGEPASISCQASESLVHSNRNTYLHWYLQKPGQSPQLLIYKVSNRFSGVPDRFSGSGSGTDFTLKISRVEAEDVGVYYCSQNTHVPPTFGQGTKVEIERTVAAPSVFIFPPSDEQLKSGTASVVCLLNNFYPREAKVQWKVDNALQSGNSQESVTEQDSKDSTYSLSSTLTLSKADYEKHKVYACEVTHQGLSSPVTKSFNRGEC
notes: also called He Ab S324_02A
B5: GpH7-A5/GpH7-B3 variant S324_15Y/GpL16-k0 (antibody, human IgG1, kappa)
heavy 1: not shown
heavy 2: not shown
light: DIVMTQSPLSLPVTPGEPASISCQASESLVHSNRNTYLHWYLQKPGQSPQLLIYKVSNRFSGVPDRFSGSGSGTDFTLKISRVEAEDVGVYYCSQNTHVPPTFGQGTKVEIERTVAAPSVFIFPPSDEQLKSGTASVVCLLNNFYPREAKVQWKVDNALQSGNSQESVTEQDSKDSTYSLSSTLTLSKADYEKHKVYACEVTHQGLSSPVTKSFNRGEC
notes: also called He Ab S324_15Y
B6: GpH7-A5/GpH7-B3 variant S324_16H/GpL16-k0 (antibody, human IgG1, kappa)
heavy 1: not shown
heavy 2: not shown
light: DIVMTQSPLSLPVTPGEPASISCQASESLVHSNRNTYLHWYLQKPGQSPQLLIYKVSNRFSGVPDRFSGSGSGTDFTLKISRVEAEDVGVYYCSQNTHVPPTFGQGTKVEIERTVAAPSVFIFPPSDEQLKSGTASVVCLLNNFYPREAKVQWKVDNALQSGNSQESVTEQDSKDSTYSLSSTLTLSKADYEKHKVYACEVTHQGLSSPVTKSFNRGEC
notes: also called He Ab S324_16H
B7: GpH7-A5/GpH7-B3 variant S337_04F/GpL16-k0 (antibody, human IgG1, kappa)
heavy 1: not shown
heavy 2: not shown
light: DIVMTQSPLSLPVTPGEPASISCQASESLVHSNRNTYLHWYLQKPGQSPQLLIYKVSNRFSGVPDRFSGSGSGTDFTLKISRVEAEDVGVYYCSQNTHVPPTFGQGTKVEIERTVAAPSVFIFPPSDEQLKSGTASVVCLLNNFYPREAKVQWKVDNALQSGNSQESVTEQDSKDSTYSLSSTLTLSKADYEKHKVYACEVTHQGLSSPVTKSFNRGEC
notes: also called He Ab S337_04F
B8: GpH7-A5/GpH7-B3 variant S337_09D/GpL16-k0 (antibody, human IgG1, kappa)
heavy 1: not shown
heavy 2: not shown
light: DIVMTQSPLSLPVTPGEPASISCQASESLVHSNRNTYLHWYLQKPGQSPQLLIYKVSNRFSGVPDRFSGSGSGTDFTLKISRVEAEDVGVYYCSQNTHVPPTFGQGTKVEIERTVAAPSVFIFPPSDEQLKSGTASVVCLLNNFYPREAKVQWKVDNALQSGNSQESVTEQDSKDSTYSLSSTLTLSKADYEKHKVYACEVTHQGLSSPVTKSFNRGEC
notes: also called He Ab S337_09D
B9: GpH7-A5/GpH7-B3 variant S337_10E/GpL16-k0 (antibody, human IgG1, kappa)
heavy 1: not shown
heavy 2: not shown
light: DIVMTQSPLSLPVTPGEPASISCQASESLVHSNRNTYLHWYLQKPGQSPQLLIYKVSNRFSGVPDRFSGSGSGTDFTLKISRVEAEDVGVYYCSQNTHVPPTFGQGTKVEIERTVAAPSVFIFPPSDEQLKSGTASVVCLLNNFYPREAKVQWKVDNALQSGNSQESVTEQDSKDSTYSLSSTLTLSKADYEKHKVYACEVTHQGLSSPVTKSFNRGEC
notes: also called He Ab S337_10E
B10: GpH7-A5/GpH7-B3 variant S337_14T/GpL16-k0 (antibody, human IgG1, kappa)
heavy 1: not shown
heavy 2: not shown
light: DIVMTQSPLSLPVTPGEPASISCQASESLVHSNRNTYLHWYLQKPGQSPQLLIYKVSNRFSGVPDRFSGSGSGTDFTLKISRVEAEDVGVYYCSQNTHVPPTFGQGTKVEIERTVAAPSVFIFPPSDEQLKSGTASVVCLLNNFYPREAKVQWKVDNALQSGNSQESVTEQDSKDSTYSLSSTLTLSKADYEKHKVYACEVTHQGLSSPVTKSFNRGEC
notes: also called He Ab S337_14T

Target: T1, FcγRIIIa extracellular domain with C-terminal His tag (human, UniProt P08637 17-208)
T1 construct: extracellular domain; also called FcgRIIIa; 3a; not shown: His tag at the C terminus
Assay: SPR relative binding; GpH7-A5/GpH7-B3/GpL16-k0 = 100
Protocol: Analysis of interaction between objective antibody and the FcγR was carried out using Biacore T100 (GE Healthcare). HBS-EP+ (GE Healthcare) was used as the running buffer, and the measurement temperature was set to 25° C. Chips produced by immobilizing the antigen peptide by the amine coupling method to a Series S Sencor Chip CM5 (GE Healthcare), or alternatively, chips produced by allowing preliminarily biotinylated antigen peptides to interact with and immobilize onto a Series S Sensor Chip SA (certified) (GE Healthcare) were used. Antibodies of interest were captured onto an antigen peptide-immobilized chip, and allowed to interact to each FcγR diluted with running buffer. To regenerate and repeatedly use the chip, the antibodies captured on the chip were washed off by reacting 10 mM glycine-HCl, pH 1.5.
The FcγR-binding activity of each antibody was assessed primarily using as an indicator the FcγR-binding activity and dissociation constant for FcγR.

T1 sequence (P08637 17-208): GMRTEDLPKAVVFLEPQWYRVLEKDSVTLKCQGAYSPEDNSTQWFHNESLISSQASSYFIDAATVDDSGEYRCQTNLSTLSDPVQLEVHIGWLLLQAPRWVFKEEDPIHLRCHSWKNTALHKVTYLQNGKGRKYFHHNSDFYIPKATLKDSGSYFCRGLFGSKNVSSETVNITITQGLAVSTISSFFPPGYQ

First: B1
Second: B2
The He/Con_3a of the first is lower: 150 % of control for the first, 181 % of control for the second.

Compared with B3, B4 is lower in He/Con_3a: 113 % of control for the first, 104 % of control for the second.

First: B5
Second: B6
The He/Con_3a of the first is lower: 101 % of control for the first, 104 % of control for the second.

Going from B7 to B8, the He/Con_3a rises from 101 % of control to 110 % of control.

Going from B9 to B10, the He/Con_3a falls from 105 % of control to 101 % of control.
